Results from patent US20240238445A1, “INHIBITORS AND USES THEREOF” (NEURACLE SCIENCE CO., LTD., priority 2021, published 2024).
One block for each molecule: values may come before it.

Key:
FAM19A5 protein [1] = target: T1, FAM19A5 protein (Homo sapiens, UniProt Q7Z5A7); experiment: ELISA, coated hFc-conjugated ectodomain (100 nM/well), rFAM19A5 titrated 0.005-10 nM
FAM19A5 protein [2] = target: T1, FAM19A5 protein; experiment: Co-immunoprecipitation of FLAG-tagged LRRC4 family deletion constructs/fragments with recombinant FAM19A5 in HEK293 cells; format: binding; conditions: HEK293 cells expressing FLAG-tagged construct, recombinant FAM19A5 1 μM 30 minutes; IP anti-FLAG, blot anti-FAM19A5 (3-2)
Outline: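 HEK293 cells expressing FLAG-tagged LRRC4B deletion constructs or LRRC4C (aa 354-527) / LRRC4 (aa 353-527) fragments were treated with 1 μM recombinant FAM19A5 for 30 min. Lysates immunoprecipitated with anti-FLAG and immunoblotted with anti-FLAG and anti-FAM19A5 (3-2) antibodies.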
Target sequence in this assay (Q7Z5A7 44-132): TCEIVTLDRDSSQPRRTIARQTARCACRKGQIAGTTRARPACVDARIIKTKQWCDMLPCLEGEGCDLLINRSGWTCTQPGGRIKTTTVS

[3] = target: binding of FAM19A5 protein to full-length ectodomain of the LRRC4B protein (amino acids 36-576 of SEQ ID NO: 2) (Homo sapiens, UniProt Q7Z5A7); experiment: Competitive inhibition assay, plate coated with full-length ectodomain of LRRC4B (amino acids 36-576); conditions: increasing concentrations; FAM19A5 5 ng/mL; 100 nM coat
Sequence of binding of FAM19A5 protein to full-length ectodomain of the LRRC4B protein (amino acids 36-576 of SEQ ID NO: 2) (Q7Z5A7 44-132): as above
Protocol: Next, to further assess the role that the binding domain of the LRRC4B protein has on the interaction between FAM19A5 protein and members of the LRRC4 protein family, a competitive inhibition assay was used to determine whether different LRRC4B deletion constructs from Example 2 could inhibit the binding of FAM19A5 to the full-length ectodomain of the LRRC4B protein (i.e., amino acids 36-576 of SEQ ID NO: 2; SEQ ID NO: 5). Briefly, 100 nM of the full-length ectodomain of the LRRC4B protein was used to coat a plate, and then recombinant FAM19A5 protein (5 ng/mL) was added to the plate in combination with the following LRRC4B deletion constructs (increasing concentrations): (1) LRRC4B (453-576) (i.e., construct #11 in Table 6); (2) LRRC4B (453-576) mutant (comprises alanine substitutions at positions 488 and 489 of SEQ ID NO: 2; SEQ ID NO: 16); (3) LRRC4B (484-576) (i.e., construct #12 in Table 6); (4) LRRC4B (482-576); (5) LRRC4B (482-497); and (6) LRRC4B (498-576). The plates were incubated at 37° C., and then, the amount of FAM19A5 bound to the coated LRRC4B ectodomain protein was measured using HRP-conjugated anti-FAM19A5 (1-65) antibody.
(§1) As described in Example 3, there appeared to be much similarity in the binding domains of the different members of the LRRC4 family. […] Then, recombinant FAM19A5 protein (5 ng/mL) was added in combination with one of the following: (i) LRRC4B (484-576) protein fragment, (ii) LRRC4B (453-576, AA) protein fragment, and (iii) synthetic FB-20 peptide. The plates were incubated at 37° C., and then, the amount of FAM19A5 protein bound to the coated LRRC4, LRRC4B, or LRRC4C proteins was measured using anti-FAM19A5 (1-65) antibody.
Next, to assess whether polypeptides comprising the binding domains of LRRC4 or LRRC4C proteins can have similar inhibitory effects on LRRC4B protein binding, the following synthetic peptides were constructed: (1) FBC4-23 (contains the binding domain of the LRRC4 protein, i.e., YSFFTTVTVETTE); and (2) FBC4C-23 (contains the binding domain of the LRRC4C protein, i.e., FSYFSTVTVETME). Then, the ability of the peptides to inhibit the binding of LRRC4 protein family members to FAM19A5 protein was assessed using a competitive inhibition assay. Briefly, plates were coated with 100 nM of either LRRC4B protein fragment #1 (amino acids 36-576 of SEQ ID NO: 2; SEQ ID NO: 5) or LRRC4B protein fragment #2 (amino acids 453-576 of SEQ ID NO: 2; SEQ ID NO: 7). Then, recombinant FAM19A5 protein (5 ng/ml for plates coated with LRRC4B fragment #1; and 1 ng/mL for plates coated with LRRC4B fragment #2) was added to the plates in combination with 20 nM of the FBC4-23, FBC4C-23, and FB-20 peptides. The plates were incubated at 37° C. and then, the amount of FAM19A5 protein bound to the coated LRRC4B protein fragments was assessed using HRP-conjugated anti-FAM19A5 (1-65) antibody.
Next, to determine the minimal sequence required to inhibit the interaction of FAM19A5 and members of the LRRC4 protein family, ten FB-20 peptide variants were constructed by serially deleting one or more amino acids from the N-terminus or C-terminus of the FB-20 peptide. Then, a competitive inhibition assay was used to assess the ability of the different FB-20 peptide variants to inhibit the interaction between FAM19A5 and LRRC4B protein. Again, plates were coated with 100 nM of either LRRC4B protein fragment #1 (amino acids 36-576 of SEQ ID NO: 2; SEQ ID NO: 5) or LRRC4B protein fragment #2 (amino acids 453-576 of SEQ ID NO: 2; SEQ ID NO: 7). Then, recombinant FAM19A5 protein (5 ng/ml for plates coated with LRRC4B fragment #1; and 1 ng/mL for plates coated with LRRC4B fragment #2) was added to the plates in combination with 20 nM of the different peptides described above. After incubating the plates at 37° C., the amount of FAM19A5 protein bound to the coated LRRC4B protein fragments was assessed using HRP-conjugated anti-FAM19A5 (1-65) antibody. […]

[4] = target: binding of FAM19A5 protein to full-length ectodomain of LRRC4 protein (Homo sapiens, UniProt Q7Z5A7); experiment: Competitive inhibition assay, plate coated with full-length ectodomain of LRRC4; conditions: FAM19A5 5 ng/mL; 100 nM/well coat
Sequence of binding of FAM19A5 protein to full-length ectodomain of LRRC4 protein (Q7Z5A7 44-132): as above
Protocol: as §1

[5] = target: binding of FAM19A5 protein to full-length ectodomain of LRRC4C protein (Homo sapiens, UniProt Q7Z5A7); experiment: Competitive inhibition assay, plate coated with full-length ectodomain of LRRC4C; conditions: FAM19A5 5 ng/mL; 100 nM/well coat
Sequence of binding of FAM19A5 protein to full-length ectodomain of LRRC4C protein (Q7Z5A7 44-132): as above
Protocol: as §1

EC50 (FAM19A5 protein [1]): 0.64 nM
B1: full-length ectodomain of LRRC4B protein (amino acids 36-576 of SEQ ID NO: 2) conjugated to human Fc (Fc fusion, not shown: a dimerising Fc or GST)
chain: AGGGGVAVTSAAGGGSPPATSCPVACSCSNQASRVICTRRDLAEVPASIPVNTRYLNLQENGIQVIRTDTFKHLRHLEILQLSKNLVRKIEVGAFNGLPSLNTLELFDNRLTTVPTQAFEYLSKLRELWLRNNPIESIPSYAFNRVPSLRRLDLGELKRLEYISEAAFEGLVNLRYLNLGMCNLKDIPNLTALVRLEELELSGNRLDLIRPGSFQGLTSLRKLWLMHAQVATIERNAFDDLKSLEELNLSHNNLMSLPHDLFTPLHRLERVHLNHNPWHCNCDVLWLSWWLKETVPSNTTCCARCHAPAGLKGRYIGELDQSHFTCYAPVIVEPPTDLNVTEGMAAELKCRTGTSMTSVNWLTPNGTLMTHGSYRVRISVLHDGTLNFTNVTVQDTGQYTCMVTNSAGNTTASATLNVSAVDPVAAGGTGSGGGGPGGSGGVGGGSGGYTYFTTVTVETLETQPGEEALQPRGTEKEPPGPTTDGVWGGGRPGDAAGPASSSTTAPAPRSSRPTEKAFTVPITDVTENALKDLDDVMKTTK

inhibition of FAM19A5 binding to coated full-length LRRC4B ectodomain protein (in words) [3]: also able to inhibit the interaction
B2: LRRC4B (484-576): LRRC4B ectodomain fragment, amino acids 484-576 of SEQ ID NO: 2 (protein)
chain: YTYFTTVTVETLETQPGEEALQPRGTEKEPPGPTTDGVWGGGRPGDAAGPASSSTTAPAPRSSRPTEKAFTVPITDVTENALKDLDDVMKTTK
binding to FAM19A5 protein (co-immunoprecipitation) (FAM19A5 protein [2]): able to bind to the FAM19A5 protein with varying degree | inhibition of FAM19A5 binding to coated LRRC4 protein (in words) [4]: able to inhibit FAM19A5 protein from binding | inhibition of FAM19A5 binding to coated LRRC4C protein (in words) [5]: able to inhibit FAM19A5 protein from binding

EC50 (FAM19A5 protein [1]): 0.48 nM
B3: full-length ectodomain of LRRC4 protein (amino acid residues 39-527 of SEQ ID NO: 1) conjugated to human Fc (Fc fusion, not shown: a dimerising Fc or GST)
chain: ASAGPQNCPSVCSCSNQFSKVVCTRRGLSEVPQGIPSNTRYLNLMENNIQMIQADTFRHLHHLEVLQLGRNSIRQIEVGAFNGLASLNTLELFDNWLTVIPSGAFEYLSKLRELWLRNNPIESIPSYAFNRVPSLMRLDLGELKKLEYISEGAFEGLFNLKYLNLGMCNIKDMPNLTPLVGLEELEMSGNHFPEIRPGSFHGLSSLKKLWVMNSQVSLIERNAFDGLASLVELNLAHNNLSSLPHDLFTPLRYLVELHLHHNPWNCDCDILWLAWWLREYIPTNSTCCGRCHAPMHMRGRYLVEVDQASFQCSAPFIMDAPRDLNISEGRMAELKCRTPPMSSVKWLLPNGTVLSHASRHPRISVLNDGTLNFSHVLLSDTGVYTCMVTNVAGNSNASAYLNVSTAELNTSNYSFFTTVTVETTEISPEDTTRKYKPVPTTSTGYQPAYTTSTTVLIQTTRVPKQVAVPATDTTDKMQTSLDEVMKTTK
